One experiment deals with HLA-A*02:01 (Homo sapiens, UniProt P04439, D140Y/D185E/D98H/E176V/E277Q/G131W/G231S/I119V/I121R/I166T/I218V/L300P/L318F/N151K/N90K/P208A/P217A/Q86G/Q94H/R138H/R169H/T345S). Description: MHC binding assay: UV-ligand exchange with β2m ELISA (peptide exchange yield). As to conditions: binding to HLA-A*02:01 evaluated by peptide exchange yield (UV-ligand exchange, β2m ELISA). The method in brief:
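Binding capacity is expressed as the yield of UV-mediated ligand exchange, reflecting how well each peptide stabilizes peptide-receptive MHC. Stabilized complexes are read out by anti-β2m HRP ELISA (450 nm) after streptavidin capture, with refolded MLA-001 monomer standards for quantitation.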

The next experiment relates to CD8+ T cells. Put plainly: In vitro T-cell priming assay with aAPCs loaded with peptide/MHC complexes and anti-CD28 antibody (in vitro immunogenicity). It is filed as cell-based, human. As to conditions: healthy HLA-A*02 donors. From the text:
In order to obtain information regarding the immunogenicity of the TUMAPs of the present invention, the inventors performed investigations using an in vitro T-cell priming assay based on repeated stimulations of CD8+ T cells with artificial antigen presenting cells (aAPCs) loaded with peptide/MHC complexes and anti-CD28 antibody.
In order to perform in vitro stimulations by artificial antigen presenting cells loaded with peptide-MHC complex (pMHC) and anti-CD28 antibody, the inventors first isolated CD8+ T cells from fresh HLA-A*02 leukapheresis products via positive selection using CD8 microbeads (Miltenyi Biotec, Bergisch-Gladbach, Germany) of healthy donors obtained from the University clinics Mannheim, Germany, after informed consent. […] Generation of pMHC/anti-CD28 coated beads, T-cell stimulations and readout was performed in a highly defined in vitro system using four different pMHC molecules per stimulation condition and 8 different pMHC molecules per readout condition. […]
800.000 beads/200 μl were coated in 96-well plates in the presence of 4×12.5 ng different biotin-pMHC, washed and 600 ng biotin anti-CD28 were added subsequently in a volume of 200 μl. […] Peptide specific cells were calculated as percentage of total CD8+ cells. […] In vitro priming of specific multimer+ CD8+ lymphocytes was detected by comparing to negative control stimulations. […]

For “285 (MLLDTVQKV; listed as Homo sapiens) [compound 285]”, the Peptide exchange result in the experiment with HLA-A*02:01 is recorded as “+++ (≥50 = +++)”.

In the case of “286 (FLTEMVHFI; listed as Homo sapiens) [compound 286]”, the Peptide exchange entry with HLA-A*02:01 is reported as “+++ (≥50 = +++)”.

With “287 (KIQEILTQV; listed as Homo sapiens) [compound 287]”, the wells result in the experiment with CD8+ T cells (percentage of positive wells) is given as “+ (<20% = +)”.

Take “288 (SLYKGLLSV; listed as Homo sapiens) [compound 288]”: the donors result in the experiment on CD8+ T cells (percentage of positive donors) is recorded as “++++ (>=70% = ++++)”.

The record behind these values is patent US10745460B2, “Peptides and combination of peptides for use in immunotherapy against various tumors” (Immatics Biotechnologies GmbH, priority 2015, dated 2020).
